Article PMC5291321

Molecular target: full-length Cbln1 (Cbln1FL) (human) (UniProt P23435)
Test: ITC

full-length Cbln1 (Cbln1FL) (human), sequence (P23435 22-193): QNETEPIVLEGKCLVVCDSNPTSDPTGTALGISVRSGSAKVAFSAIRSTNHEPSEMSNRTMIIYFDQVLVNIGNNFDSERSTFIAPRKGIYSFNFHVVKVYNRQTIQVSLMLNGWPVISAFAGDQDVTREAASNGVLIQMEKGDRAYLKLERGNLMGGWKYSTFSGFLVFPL

Kd: 43.5 nM | stoichiometry N (β-NRX1(+4) per Cbln1 hexamer): 1
Substance: β-neurexin-1 with spliced sequence #4 (β-NRX1(+4)) (domain or fragment)
